Laboratory results from the supplement of paper PMC9112550, “Optimization of the antimicrobial peptide Bac7 by deep mutational scanning” (BMC Biology, 2022).

System: Escherichia coli TOP10
Assay: shrunken log2 fold change of peptide-encoding DNA abundance (4.5 h post-induction vs induction); higher = less antimicrobial activity (less host growth inhibition)
Conditions: time post-induction: 4.5 h; library: site-saturation at positions 5, 18, 19, 20
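Note: peptides expressed intracellularly from a pBAD plasmid library in pooled LB shake-flask culture, induced with 0.3% L-arabinose, DNA abundance read by NGS, three biological replicates, DESeq2 with apeglm shrinkage.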

RRIRCRPPRLPRPRPRPLIRPRP
shrunken log2 fold change: -0.109

RRIRMRPPRLPRPRPRPMPTPRP
shrunken log2 fold change: 2.8

RRIRARPPRLPRPRPRPCGIPRP
shrunken log2 fold change: 0.23

RRIRERPPRLPRPRPRPTLCPRP
shrunken log2 fold change: 0.259

RRIRQRPPRLPRPRPRPNREPRP
shrunken log2 fold change: -0.0709

RRIRIRPPRLPRPRPRPMFCPRP
shrunken log2 fold change: -0.345

RRIRCRPPRLPRPRPRPKKKPRP
shrunken log2 fold change: -0.0938

RRIRVRPPRLPRPRPRPITPPRP
shrunken log2 fold change: 0.12

RRIRHRPPRLPRPRPRPINMPRP
shrunken log2 fold change: -0.244

RRIRRRPPRLPRPRPRPYPLPRP
shrunken log2 fold change: 0.015

RRIRLRPPRLPRPRPRPNHFPRP
shrunken log2 fold change: -0.349

RRIRRRPPRLPRPRPRPFAVPRP
shrunken log2 fold change: 0.0874

RRIRNRPPRLPRPRPRPVVQPRP
shrunken log2 fold change: 0.0488

RRIRFRPPRLPRPRPRPFFDPRP
shrunken log2 fold change: -0.065

RRIRHRPPRLPRPRPRPDSIPRP
shrunken log2 fold change: -0.0212

RRIRMRPPRLPRPRPRPRIVPRP
shrunken log2 fold change: 0.16

RRIRYRPPRLPRPRPRPNWFPRP
shrunken log2 fold change: -0.892

RRIRTRPPRLPRPRPRPILNPRP
shrunken log2 fold change: -0.403

RRIRLRPPRLPRPRPRPMFSPRP
shrunken log2 fold change: -0.267

RRIRERPPRLPRPRPRPACRPRP
shrunken log2 fold change: 0.392

RRIRMRPPRLPRPRPRPGAMPRP
shrunken log2 fold change: 0.609

RRIRGRPPRLPRPRPRPLRVPRP
shrunken log2 fold change: 1

RRIRYRPPRLPRPRPRPDCFPRP
shrunken log2 fold change: -0.0906

RRIRKRPPRLPRPRPRPENMPRP
shrunken log2 fold change: 0.11

RRIRARPPRLPRPRPRPDHSPRP
shrunken log2 fold change: 0.0675

RRIRLRPPRLPRPRPRPCFHPRP
shrunken log2 fold change: -0.49

RRIRARPPRLPRPRPRPDGFPRP
shrunken log2 fold change: 0.135

RRIRVRPPRLPRPRPRPKWAPRP
shrunken log2 fold change: 0.269

RRIRIRPPRLPRPRPRPMVQPRP
shrunken log2 fold change: -0.0334

RRIRTRPPRLPRPRPRPAERPRP
shrunken log2 fold change: -0.104

RRIRGRPPRLPRPRPRPWMTPRP
shrunken log2 fold change: 0.034

RRIRYRPPRLPRPRPRPAAEPRP
shrunken log2 fold change: 0.22

RRIRNRPPRLPRPRPRPQTHPRP
shrunken log2 fold change: -0.217

RRIRIRPPRLPRPRPRPPLFPRP
shrunken log2 fold change: 0.0406

RRIRKRPPRLPRPRPRPVAGPRP
shrunken log2 fold change: 0.127

RRIRVRPPRLPRPRPRPFNDPRP
shrunken log2 fold change: -0.416

RRIRGRPPRLPRPRPRPYTYPRP
shrunken log2 fold change: -0.0842

RRIRCRPPRLPRPRPRPFLHPRP
shrunken log2 fold change: -0.703

RRIRARPPRLPRPRPRPCYNPRP
shrunken log2 fold change: -0.456

RRIRWRPPRLPRPRPRPKGNPRP
shrunken log2 fold change: 0.514

RRIRFRPPRLPRPRPRPYNYPRP
shrunken log2 fold change: -1.03

RRIRCRPPRLPRPRPRPTLFPRP
shrunken log2 fold change: 0.196

RRIRWRPPRLPRPRPRPVDPPRP
shrunken log2 fold change: 0.158

RRIRMRPPRLPRPRPRPWKPPRP
shrunken log2 fold change: -0.0836

RRIRARPPRLPRPRPRPMHPPRP
shrunken log2 fold change: 0.362

RRIRHRPPRLPRPRPRPFMPPRP
shrunken log2 fold change: -0.146

RRIRCRPPRLPRPRPRPRCRPRP
shrunken log2 fold change: 0.285

RRIRSRPPRLPRPRPRPTNFPRP
shrunken log2 fold change: 0.0979

RRIRTRPPRLPRPRPRPELFPRP
shrunken log2 fold change: 0.039

RRIRWRPPRLPRPRPRPHTMPRP
shrunken log2 fold change: -0.00694

RRIRKRPPRLPRPRPRPPCNPRP
shrunken log2 fold change: 0.189

RRIRNRPPRLPRPRPRPNYAPRP
shrunken log2 fold change: -0.178

RRIRNRPPRLPRPRPRPDVDPRP
shrunken log2 fold change: 0.0446

RRIRARPPRLPRPRPRPCNHPRP
shrunken log2 fold change: -0.177

RRIRYRPPRLPRPRPRPTYVPRP
shrunken log2 fold change: -0.0567

RRIRHRPPRLPRPRPRPCTKPRP
shrunken log2 fold change: 0.0647

RRIRVRPPRLPRPRPRPPQCPRP
shrunken log2 fold change: -0.143

RRIRQRPPRLPRPRPRPGDSPRP
shrunken log2 fold change: -0.0573

RRIRTRPPRLPRPRPRPDVEPRP
shrunken log2 fold change: 0.053

RRIRSRPPRLPRPRPRPCCLPRP
shrunken log2 fold change: -0.125
